Results from publication PMC4256367.

Biological target: hTau40 (Tau, 2N4R) 1-441 (UniProt P10636)
Assay: fluorescence lifetime (TCSPC) over time
[1] = reference: unlabelled P0-Tau (E. coli), sites S202,T205,T212,S214,T231,S235,S262,S356,S396,S404,Y310,S324,T153

| Substance | other: final average lifetime [1] | further results |
| --- | --- | --- |
| hTau40 (Tau, 2N4R) 1-441 (from UniProt P10636-8) P12-Tau incubated with alkaline phosphatase (P4-Tau) |  | other: final average lifetime (reference: P12-Tau untreated, sites S202,T205,T212,S214,T231,S235,S262,S356,S396,S404): weaker; reference 0.6 |
| hTau40 (Tau, 2N4R) 1-441 (from UniProt P10636-8) P20-Tau (Sf9 cells treated with okadaic acid) |  | other: final average lifetime (reference: P12-Tau (Sf9, no okadaic acid)): stronger; reference 0.6 |
| hTau40 (Tau, 2N4R) 1-441 (from UniProt P10636-8) unlabelled P20-Tau (Sf9 + okadaic acid) | stronger; reference 3.8 |  |
| hTau40 (Tau, 2N4R) 1-441 (from UniProt P10636-8) unlabelled P12-Tau (Sf9) | stronger; reference 3.8 |  |
